Test results taken from US20230338553A1 (published 2023).
Blank lines part the entries; values can stand above or below the binder they belong to.

Biological target: Prostate Stem Cell Antigen (PSCA) (human, UniProt O43653 12-83)
Test: flow cytometry (293T-PSCA cells)

Sequence of Prostate Stem Cell Antigen (PSCA) (O43653 12-83): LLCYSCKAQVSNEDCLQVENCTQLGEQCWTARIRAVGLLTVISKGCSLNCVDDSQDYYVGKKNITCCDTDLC

- Kd: 16.6 µM
B1: scFv(AM1)-P-BAP (scFv)
scFv: DAAQPARRARRTKLGTELGSQVKLQESGGGLVQPGGSLKLSCVASGFTFSSYTMSWVRRTPEKRLEWVAYIHNGGGHTYYPDTIKGRFTISRDNAKNTLFLEMSSLKSEDTAMYYCTRRMYYGNSHWYFDVWGAGTSVTVSSAKTTPPSVYGGGGSGGGGSGGGGSTNSDIVMTQSPSSLSASLGDRVTINCRTSQDISNYLNWYQLTPDGTVKLLIYYTLKLNSGVPSRFSGSGSGTDYSLTINNLEKEDFATYFCQQSKTLPWTFGGGTKLEIKRADAAPTVSGPKLSSKLKVTVNGTAYDVDVDVDKSHENPMGTILFGGGTGGAPAPAAGGAGAGKAGEGEIPAPLAGTVSKILVKEGDTVKAGQTVLVLEAMKMETEINAPTDGKVEKVLVKERDAVQGGQGLIKIGDLELIEGSSGPEQKLISEEDLNSAVDHHHHHH
modifications: mono-biotinylated at the C-terminal P-BAP (PSTCD biotin acceptor domain) when produced in 293T-huBirA cells

- Kd: 0.744 µM
B2: scFv(h-AM1)-BAP (scFv)
scFv: DAAQPARRARRTKLGTELGSEVQLLESGGGLVQPGGSLRLSCVASGFTFSSYTMSWVRQAPGKGLEWVSYIHNGGGHTYYADSVKGRFTISRDNSKNTLYLQMNSLRAEDTAVYYCTRRMYYGNSHWYFDVWGAGTRVTITSAKTTPPSVYGGGGSGGGGSGGGGSTNSDIQMTQSPSSLSASVGDRVTITCRTSQSISNYLNWYQQKPGKAPKLLIYYTLKLNSGVPSRFSGSGSGTDFTLTISSLQPEDFATYYCQQSKTLPWTFGGGTKLEIKRADAAPTVSGPEQKLISEEDLNSAVDMSGLNDIFEAQKIEWHEGAPSSHHHHHH
modifications: mono-biotinylated at the C-terminal BAP (Bio-Tag)
